Test results from paper PMC6526389.

Experiments:
[1] = molecular target: HA-tagged human CXCR1 expressed on L1.2 cells (human) (UniProt P25024); assay: radioligand binding; competition of increasing concentrations of unlabeled CXCL8 (pre-incubated with H292 or H575 culture supernatant, then Pefabloc SC) against [125I]-CXCL8 on L1.2 cells expressing HA-CXCR1 or HA-CXCR2; n = 6
[2] = molecular target: HA-tagged human CXCR2 expressed on L1.2 cells (human) (UniProt P25025); assay: as above

- IC50 [1]: 8.1 nM
- IC50 [2]: 8.7 nM
Substance: Recombinant human CXCL8, 72 aa form (CXCL8^1–72), intact (incubated with control H575 supernatant) (ligand)
